Experimental findings from US20160230226A1 are described below.

This assay has as its target IL13Rα2 (human) (UniProt Q14627). Nature of the assay: cell-based or functional assay.
Chain of UniProt Q14627 (Q14627 27-380): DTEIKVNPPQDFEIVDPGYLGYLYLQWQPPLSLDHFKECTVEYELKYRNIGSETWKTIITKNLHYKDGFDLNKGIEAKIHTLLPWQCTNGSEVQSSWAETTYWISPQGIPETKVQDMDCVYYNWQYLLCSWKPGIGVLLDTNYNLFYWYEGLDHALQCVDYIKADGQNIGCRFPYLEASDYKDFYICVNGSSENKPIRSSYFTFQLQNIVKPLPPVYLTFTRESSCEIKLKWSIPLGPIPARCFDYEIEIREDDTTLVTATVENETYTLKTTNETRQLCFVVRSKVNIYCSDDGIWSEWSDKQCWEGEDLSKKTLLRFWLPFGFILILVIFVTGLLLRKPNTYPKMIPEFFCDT

As to “IL-13 (from UniProt P35225 35-146) (ligand)”, the IL-13 concentration needed for the same CCL26 or periostin gene induction in IMR90 cells pre-stimulated with TNFα (elevated IL13Rα2) versus not pre-stimulated stood at 10 fold.
